Data from the supplement of paper PMC10724198.
± gives the standard deviation of the averaged measurements.

Columns and labels:
Saccharomyces cerevisiae [1] = experiment: protein stability index of tFT-peptide fusion (C-terminal peptide) (PSI (0-1 scale)); higher = more stable (slower turnover)
Protocol: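 MPS profiling in S. cerevisiae of the tFT-X12 degron library: putative degron peptides plus stable controls, 12 aa, fused to the C-terminus of a sfGFP-mCherry timer. Cells are FACS-sorted into 8 mCherry/sfGFP bins and deep-sequenced. PSI runs from 0 (unstable) to 1 (stable). Backgrounds are wild type, das1Δ and doa10Δ at 30 °C, and wild type, das1Δ, cdc34-1 and cdc53-1 at 37 °C; 2-3 technical replicates each.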

Saccharomyces cerevisiae [2] = experiment: as above; settings: genetic background: wild type; temperature: 30 C
[3] = genetic background: cdc34-1, temperature: 37 C
[4] = genetic background: cdc53-1, temperature: 37 C
[5] = genetic background: das1 deletion, temperature: 30 C
[6] = genetic background: das1 deletion, temperature: 37 C
[7] = genetic background: doa10 deletion, temperature: 30 C
[8] = genetic background: wild type, temperature: 30 C
[9] = genetic background: wild type, temperature: 37 C
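Also: PSI is a weighted mean of sequencing reads over stability bins, variants kept only with over 10 reads, mCherry proximal and sfGFP distal, peptide attached via GGGS linker.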

| Sequence | protein stability index (Saccharomyces cerevisiae [1]; [3]) | protein stability index (Saccharomyces cerevisiae [1]; [4]) | protein stability index (Saccharomyces cerevisiae [1]; [5]) | protein stability index (Saccharomyces cerevisiae [1]; [6]) | protein stability index (Saccharomyces cerevisiae [1]; [7]) | protein stability index (Saccharomyces cerevisiae [1]; [8]) | protein stability index (Saccharomyces cerevisiae [1]; [9]) | protein stability index (Saccharomyces cerevisiae [2]) |
| --- | --- | --- | --- | --- | --- | --- | --- | --- |
| LQSYIFSVRGIS | 0.707 ± 0.02 | 0.697 ± 0.018 | 0.601 ± 0.029 | 0.707 ± 0.029 | 0.418 ± 0.054 | 0.45 ± 0.046 | 0.638 ± 0.0012 | 0.533 ± 0.078 |
| LRMMLLVTIILE | 0.0571 ± 0.0011 | 0.115 ± 0.0084 | 0.107 ± 0.028 | 0.216 ± 0.0072 | 0.0875 ± 0.023 | 0.0921 ± 0.025 | 0.198 ± 0.026 | 0.188 ± 0.037 |
| LRVGVRSWGGKW | 0.4323 ± 0.0013 | 0.5125 ± 0.0013 | 0.4299 ± 0.0014 | 0.4369 ± 0.002 | 0.439 ± 0.013 | 0.4346 ± 0.0031 | 0.439 ± 0.014 | 0.433 ± 0.0069 |
| LSFYLRAVRASL | 0.777 ± 0.092 | 0.782 ± 0.009 | 0.629 ± 0.015 | 0.7101 ± 0.0032 | 0.562 ± 0.037 | 0.565 ± 0.027 | 0.673 ± 0.015 | 0.522 ± 0.035 |
| LSLFPFLPSPCP | 0.736 ± 0.03 | 0.777 ± 0.0099 | 0.671 ± 0.009 | 0.752 ± 0.035 | 0.674 ± 0.036 | 0.669 ± 0.021 | 0.744 ± 0.018 | 0.748 ± 0.07 |
| LSRSAGVGVWVG | 0.65 ± 0.01 | 0.72 ± 0.019 | 0.647 ± 0.0099 | 0.731 ± 0.013 | 0.243 ± 0.018 | 0.283 ± 0.022 | 0.553 ± 0.026 | 0.391 ± 0.073 |
| LSTFFIFLRILR | 0.289 ± 0.028 | 0.218 ± 0.0087 | 0.324 ± 0.04 | 0.4436 ± 0.0022 | 0.517 ± 0.021 | 0.342 ± 0.028 | 0.436 ± 0.05 | 0.367 ± 0.028 |
| LVFLYFHFCCGF | 0.4768 ± 0.0043 | 0.4909 ± 0.0032 | 0.394 ± 0.026 | 0.543 ± 0.024 | 0.399 ± 0.017 | 0.386 ± 0.013 | 0.5313 ± 0.0006 | 0.485 ± 0.017 |
| LVFPPVPSLVLC | 0.261 ± 0.018 | 0.278 ± 0.0066 | 0.277 ± 0.036 | 0.376 ± 0.013 | 0.192 ± 0.0059 | 0.223 ± 0.029 | 0.3099 ± 0.0013 | 0.352 ± 0.0088 |
| LVFPRWACSLVF | 0.344 ± 0.0079 | 0.3661 ± 0.0021 | 0.307 ± 0.025 | 0.426 ± 0.0075 | 0.263 ± 0.0029 | 0.288 ± 0.037 | 0.406 ± 0.019 | 0.3762 ± 0.00049 |
| LVFRVSLVEVVL | 0.2142 ± 0.0015 | 0.299 ± 0.0071 | 0.232 ± 0.028 | 0.36 ± 0.01 | 0.196 ± 0.0062 | 0.214 ± 0.029 | 0.334 ± 0.014 | 0.32 ± 0.014 |
| LVGLLASWLRFN | 0.579 ± 0.052 | 0.6987 ± 0.001 | 0.672 ± 0.0051 | 0.773 ± 0.017 | 0.12 ± 0.0057 | 0.137 ± 0.012 | 0.199 ± 0.061 | 0.137 ± 0.039 |
| LVLALTPFLHSF | 0.639 ± 0.01 | 0.701 ± 0.017 | 0.638 ± 0.021 | 0.727 ± 0.012 | 0.239 ± 0.0075 | 0.284 ± 0.018 | 0.551 ± 0.0073 | 0.399 ± 0.0069 |
| LVLSVWFFNCTS | 0.485 ± 0.0093 | 0.569 ± 0.021 | 0.422 ± 0.032 | 0.573 ± 0.022 | 0.277 ± 0.0063 | 0.283 ± 0.039 | 0.5196 ± 0.0025 | 0.424 ± 0.021 |
| LVRFYGPLPPFP | 0.688 ± 0.047 | 0.7613 ± 0.0063 | 0.664 ± 0.029 | 0.757 ± 0.011 | 0.656 ± 0.016 | 0.66 ± 0.011 | 0.729 ± 0.011 | 0.7258 ± 0.0068 |
| LVRGGLTNLFLF | 0.664 ± 0.046 | 0.78 ± 0.019 | 0.644 ± 0.024 | 0.7829 ± 0.0056 | 0.181 ± 0.0012 | 0.194 ± 0.032 | 0.47 ± 0.016 | 0.316 ± 0.032 |
| LWFFVVVVVRWV | 0.102 ± 0.014 | 0.135 ± 0.0081 | 0.149 ± 0.032 | 0.2611 ± 0.0017 | 0.139 ± 0.019 | 0.136 ± 0.027 | 0.183 ± 0.03 | 0.189 ± 0.053 |
| LWRFFFVAFVGI | 0.446 ± 0.0079 | 0.509 ± 0.024 | 0.377 ± 0.034 | 0.55 ± 0.0084 | 0.359 ± 0.0076 | 0.357 ± 0.021 | 0.515 ± 0.018 | 0.421 ± 0.025 |
| MALAVRVVFCGA | 0.3299 ± 0.0012 | 0.338 ± 0.0067 | 0.275 ± 0.032 | 0.436 ± 0.015 | 0.227 ± 0.0095 | 0.27 ± 0.025 | 0.418 ± 0.01 | 0.371 ± 0.058 |
| MALAVRVVICGA | 0.0365 ± 0.01 | 0.11 ± 0.097 | 0.134 ± 0.015 | 0.172 ± 0.011 | 0.103 ± 0.012 | 0.107 ± 0.019 | 0.134 ± 0.026 | 0.169 ± 0.0098 |

| Sequence | protein stability index (Saccharomyces cerevisiae [1]; [3]) | protein stability index (Saccharomyces cerevisiae [1]; [4]) | protein stability index (Saccharomyces cerevisiae [1]; [5]) | protein stability index (Saccharomyces cerevisiae [1]; [6]) | protein stability index (Saccharomyces cerevisiae [1]; [7]) | protein stability index (Saccharomyces cerevisiae [1]; [8]) | protein stability index (Saccharomyces cerevisiae [1]; [9]) | protein stability index (Saccharomyces cerevisiae [2]) |
| --- | --- | --- | --- | --- | --- | --- | --- | --- |
| MLCVFVFIWYFV | 0.235 ± 0.03 | 0.279 ± 0.013 | 0.254 ± 0.011 | 0.359 ± 0.0048 | 0.218 ± 0.013 | 0.208 ± 0.024 | 0.307 ± 0.02 | 0.235 ± 0.011 |
| MLFALLTIVFLG | 0.241 ± 0.031 | 0.3263 ± 0.0015 | 0.242 ± 0.024 | 0.388 ± 0.0085 | 0.166 ± 0.0093 | 0.182 ± 0.015 | 0.30056 ± 0.00017 | 0.295 ± 0.016 |
| MLTYVVRSLVGY | 0.484 ± 0.0066 | 0.4954 ± 0.0015 | 0.37 ± 0.045 | 0.527 ± 0.011 | 0.331 ± 0.017 | 0.375 ± 0.023 | 0.496 ± 0.018 | 0.422 ± 0.029 |
| MWFVGLCLHFFM | 0.472 ± 0.029 | 0.5504 ± 0.0014 | 0.409 ± 0.024 | 0.546 ± 0.035 | 0.344 ± 0.0067 | 0.364 ± 0.017 | 0.499 ± 0.019 | 0.3985 ± 0.0019 |
| NAGSHHAAVKLG | 0.664 ± 0.064 | 0.74 ± 0.027 | 0.6411 ± 0.0016 | 0.7163 ± 0.001 | 0.222 ± 0.018 | 0.266 ± 0.023 | 0.502 ± 0.012 | 0.399 ± 0.06 |
| NCMGLLMPLLIT | 0.437 ± 0.024 | 0.391 ± 0.0086 | 0.378 ± 0.039 | 0.504 ± 0.019 | 0.2688 ± 0.00028 | 0.254 ± 0.037 | 0.382 ± 0.012 | 0.353 ± 0.0039 |
| NFFLLFFFFLSF | 0.455 ± 0.037 | 0.4876 ± 0.0038 | 0.398 ± 0.045 | 0.535 ± 0.0082 | 0.4656 ± 0.0034 | 0.41 ± 0.043 | 0.512 ± 0.022 | 0.415 ± 0.049 |
| PAMPTEPKSSSG | 0.667 ± 0.019 | 0.7403 ± 0.0028 | 0.629 ± 0.015 | 0.716 ± 0.034 | 0.644 ± 0.015 | 0.667 ± 0.033 | 0.717 ± 0.0095 | 0.7016 ± 0.0016 |
| PFFSSLKYRRDH | 0.598 ± 0.07 | 0.751 ± 0.014 | 0.6675 ± 0.0032 | 0.77 ± 0.02 | 0.117 ± 0.024 | 0.142 ± 0.023 | 0.197 ± 0.014 | 0.237 ± 0.051 |
| PFFVFSFLFLLH | 0.114 ± 0.01 | 0.183 ± 0.023 | 0.192 ± 0.024 | 0.313 ± 0.035 | 0.194 ± 0.012 | 0.15 ± 0.029 | 0.275 ± 0.015 | 0.288 ± 0.054 |
| PHRLSRFILRLL | 0.562 ± 0.027 | 0.683 ± 0.014 | 0.65 ± 0.033 | 0.703 ± 0.013 | 0.118 ± 0.0059 | 0.119 ± 0.019 | 0.219 ± 0.015 | 0.194 ± 0.041 |
| PLCLFPPLLVFL | 0.492 ± 0.044 | 0.526 ± 0.034 | 0.411 ± 0.024 | 0.556 ± 0.021 | 0.453 ± 0.022 | 0.387 ± 0.02 | 0.5103 ± 0.0047 | 0.462 ± 0.032 |
| PLFLLTFAITLV | 0.0736 ± 0.0086 | 0.194 ± 0.06 | 0.166 ± 0.024 | 0.277 ± 0.018 | 0.152 ± 0.0066 | 0.146 ± 0.028 | 0.2289 ± 0.00087 | 0.272 ± 0.021 |
| PLLLLLPSLLLV | 0.363 ± 0.027 | 0.413 ± 0.011 | 0.3 ± 0.029 | 0.439 ± 0.021 | 0.149 ± 0.0015 | 0.18 ± 0.017 | 0.248 ± 0.013 | 0.25 ± 0.025 |
| PLRRPSWVVLSS | 0.671 ± 0.024 | 0.7218 ± 0.0037 | 0.638 ± 0.014 | 0.727 ± 0.0099 | 0.357 ± 0.024 | 0.38 ± 0.029 | 0.5802 ± 0.0041 | 0.493 ± 0.0029 |
| PPIPTPSPIPLH | 0.66 ± 0.018 | 0.726 ± 0.0011 | 0.653 ± 0.017 | 0.695 ± 0.021 | 0.667 ± 0.011 | 0.658 ± 0.017 | 0.677 ± 0.015 | 0.7119 ± 0.0055 |
| PPPHPPPATFLS | 0.661 ± 0.029 | 0.692 ± 0.0097 | 0.676 ± 0.02 | 0.729 ± 0.022 | 0.401 ± 0.023 | 0.407 ± 0.021 | 0.596 ± 0.026 | 0.479 ± 0.011 |
| PPPPPPPSSSSL | 0.667 ± 0.041 | 0.735 ± 0.027 | 0.672 ± 0.017 | 0.722 ± 0.011 | 0.674 ± 0.013 | 0.696 ± 0.037 | 0.727 ± 0.03 | 0.388 ± 0.0099 |
| PPTHDSPVWSPS | 0.677 ± 0.06 | 0.721 ± 0.023 | 0.672 ± 0.029 | 0.7438 ± 0.0025 | 0.667 ± 0.017 | 0.687 ± 0.02 | 0.7217 ± 0.0029 | 0.743 ± 0.0086 |
